Measurements: publication PMC8633780

Molecular target: EstN7, cold active family IV (hormone sensitive lipase family) esterase from Bacillus cohnii strain N1 (Bacillus cohnii strain N1)
Test: SEC; size exclusion chromatography of purified EstN7 in solution (supplementary figure S1)

stoichiometry N: 2
Substance: EstN7, cold active family IV (hormone sensitive lipase family) esterase from Bacillus cohnii strain N1 (enzyme)
